The target in one assay is T1, human Exportin 1 (human, UniProt O14980 1-1071).
T1 construct: Exportin 1 (Xpo1/CRM1), human; also called hsXpo1; Xpo1; source: bacterial expression construct, purified (native Ni(II) chelate chromatography)
The assay is described as follows: NTR-dependent recruitment of a fluorescent cargo into FG phase particles (confocal laser-scanning microscopy); prf.GLFG_(52x12) phase challenged with import cargo (IBB-EGFP; IBB-MBP-GFP-M9) or export cargo (NES-EGFP + RanQ69L) in the absence or presence of the corresponding NTRs (Impβ, transportin, Xpo1). Conditions: both partners purified.

Assay [1] concerns the target T2, Alexa Fluor 488-labeled rat NTF2 (rat, UniProt P61972 1-127, Alexa Fluor 488 label (site not stated)).
T2 construct: nuclear transport factor 2 (NTF2), rat, 30-kDa nuclear transport receptor (dimer); The methods say that most NTRs were His-tagged fusions whose tags were cleaved off; also called Alexa488-labeled NTF2; source: bacterial expression construct, purified (native Ni(II) chelate chromatography)
Put plainly: partitioning into FG phase particles (FG particle permeation assay, confocal laser-scanning microscopy); FG domain diluted out of 4 M guanidinium hydrochloride into 50 mM Tris/HCl pH 7.5, 150 mM NaCl, 5 mM DTT, 5 µM FG domain; fluorescent probe in the buffer (mCherry 5 µM, probes with partition coefficient ≥2 at 0.75 µM); particles sedimented 60 min; ratio of fluorescence inside to outside the particles; 21 °C. To be noted: both partners purified.

Results on two molecules are retold here after PMC8245513, “Recapitulation of selective nuclear import and export with a perfectly repeated 12mer GLFG peptide” (Nature Communications, 2021).

T2 sequence (P61972 whole entry, the tested form may be a part): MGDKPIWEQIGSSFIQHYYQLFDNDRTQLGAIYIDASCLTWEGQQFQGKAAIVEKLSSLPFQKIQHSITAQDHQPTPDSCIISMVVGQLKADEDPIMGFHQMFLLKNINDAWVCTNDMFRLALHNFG
T1 sequence (O14980 whole entry): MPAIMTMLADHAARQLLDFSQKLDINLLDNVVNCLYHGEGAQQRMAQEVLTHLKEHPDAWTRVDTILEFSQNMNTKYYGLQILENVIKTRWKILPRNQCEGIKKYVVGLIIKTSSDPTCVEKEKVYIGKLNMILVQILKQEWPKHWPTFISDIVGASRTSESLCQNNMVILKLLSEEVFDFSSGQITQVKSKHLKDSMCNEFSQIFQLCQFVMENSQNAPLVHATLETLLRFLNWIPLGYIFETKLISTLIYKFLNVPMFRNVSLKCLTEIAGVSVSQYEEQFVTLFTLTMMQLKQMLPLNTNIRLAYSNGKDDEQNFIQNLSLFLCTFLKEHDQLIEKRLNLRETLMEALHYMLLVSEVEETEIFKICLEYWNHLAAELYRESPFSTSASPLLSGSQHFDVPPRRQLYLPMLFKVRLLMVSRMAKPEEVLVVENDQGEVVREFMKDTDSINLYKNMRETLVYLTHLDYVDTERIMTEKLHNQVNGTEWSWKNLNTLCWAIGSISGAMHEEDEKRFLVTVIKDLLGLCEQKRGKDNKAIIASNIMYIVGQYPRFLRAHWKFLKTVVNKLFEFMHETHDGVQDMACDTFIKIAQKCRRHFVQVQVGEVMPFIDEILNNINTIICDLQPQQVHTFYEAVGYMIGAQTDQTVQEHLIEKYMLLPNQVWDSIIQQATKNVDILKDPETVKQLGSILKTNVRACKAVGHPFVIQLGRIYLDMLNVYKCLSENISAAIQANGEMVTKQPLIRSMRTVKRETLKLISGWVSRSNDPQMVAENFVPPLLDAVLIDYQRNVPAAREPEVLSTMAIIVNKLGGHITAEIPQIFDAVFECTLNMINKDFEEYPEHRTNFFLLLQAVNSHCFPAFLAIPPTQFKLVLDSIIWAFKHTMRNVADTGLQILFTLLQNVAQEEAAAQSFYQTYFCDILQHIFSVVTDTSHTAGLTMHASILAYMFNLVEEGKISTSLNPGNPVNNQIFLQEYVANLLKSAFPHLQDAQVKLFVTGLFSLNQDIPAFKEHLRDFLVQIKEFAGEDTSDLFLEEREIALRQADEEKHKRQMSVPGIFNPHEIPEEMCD

B1: NES(PKI)-EGFP (other)
chain: SNELALKLAGLDIN
modifications: PKI-type NES core with short flanks, mEGFP carrier left out; the exact construct (PKI01, pTG-A450) is not printed and may be an optimised NES variant
B1: in the assay with human Exportin 1, the “fold stimulation of the cargo's entry into the prf.GLFG_(52x12) phase by Xpo1 (with RanQ69L)” value came to 3500 fold.

B2: prf.GLFG_(52x12) (other)
chain: GGLFGGNTQPATGGLFGGNTQPATGGLFGGNTQPATGGLFGGNTQPATGGLFGGNTQPATGGLFGGNTQPATGGLFGGNTQPATGGLFGGNTQPATGGLFGGNTQPATGGLFGGNTQPATGGLFGGNTQPATGGLFGGNTQPATGGLFGGNTQPATGGLFGGNTQPATGGLFGGNTQPATGGLFGGNTQPATGGLFGGNTQPATGGLFGGNTQPATGGLFGGNTQPATGGLFGGNTQPATGGLFGGNTQPATGGLFGGNTQPATGGLFGGNTQPATGGLFGGNTQPATGGLFGGNTQPATGGLFGGNTQPATGGLFGGNTQPATGGLFGGNTQPATGGLFGGNTQPATGGLFGGNTQPATGGLFGGNTQPATGGLFGGNTQPATGGLFGGNTQPATGGLFGGNTQPATGGLFGGNTQPATGGLFGGNTQPATGGLFGGNTQPATGGLFGGNTQPATGGLFGGNTQPATGGLFGGNTQPATGGLFGGNTQPATGGLFGGNTQPATGGLFGGNTQPATGGLFGGNTQPATGGLFGGNTQPATGGLFGGNTQPATGGLFGGNTQPATGGLFGGNTQPATGGLFGGNTQPATGGLFGGNTQPATGGLFGGNTQPATGGLFGGNTQPATC
notes: C-terminal Cys residue fused for maleimide labelling; also called GLEBS-free, perfectly repeated FG variant; ultimately simplified FG domain
For the molecule B2, in assay [1], the binding result is “binds”.
